Results from PMC10284691 (2023).
Where two headings read alike, the source gives them in different places.

Key:
[1] = biological target: T1, BPH14–LRR (purified from insect cells) (rice (Oryza sativa), line RI35 carrying …, biotin (NHS-biotin) in the BLI assays; RED-NHS 2nd Generation dye in the MST assays); experiment: BLI
T1 chain: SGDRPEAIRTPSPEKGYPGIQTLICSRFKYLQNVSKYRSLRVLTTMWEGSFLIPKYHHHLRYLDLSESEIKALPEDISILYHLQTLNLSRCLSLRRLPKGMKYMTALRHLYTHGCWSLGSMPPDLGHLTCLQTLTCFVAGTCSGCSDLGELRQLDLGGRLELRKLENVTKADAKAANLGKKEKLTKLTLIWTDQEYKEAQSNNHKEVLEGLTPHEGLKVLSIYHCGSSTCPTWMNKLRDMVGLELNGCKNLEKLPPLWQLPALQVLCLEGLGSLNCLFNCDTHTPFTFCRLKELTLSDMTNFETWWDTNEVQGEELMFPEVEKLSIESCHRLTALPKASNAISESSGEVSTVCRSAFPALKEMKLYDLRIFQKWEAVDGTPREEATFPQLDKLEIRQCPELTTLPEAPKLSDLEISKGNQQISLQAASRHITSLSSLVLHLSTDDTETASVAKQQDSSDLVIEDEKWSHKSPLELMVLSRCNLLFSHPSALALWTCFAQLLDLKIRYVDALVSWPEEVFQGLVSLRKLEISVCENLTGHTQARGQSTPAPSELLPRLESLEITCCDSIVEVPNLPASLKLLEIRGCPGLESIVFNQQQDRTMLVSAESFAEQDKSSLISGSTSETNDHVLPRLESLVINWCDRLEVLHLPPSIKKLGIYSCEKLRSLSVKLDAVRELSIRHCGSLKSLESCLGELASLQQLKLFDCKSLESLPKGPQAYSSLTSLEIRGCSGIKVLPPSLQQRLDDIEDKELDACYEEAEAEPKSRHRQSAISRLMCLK

[2] = biological target: T1, BPH14–LRR (purified from insect cells); experiment: MST
[3] = biological target: T1, BPH14–LRR (purified from insect cells); experiment: BLI
[4] = biological target: T1, BPH14–LRR (purified from insect cells); experiment: MST; competition with BISP(26–124) prebound to LRR

| Binder | koff [1] [s⁻¹] | Kd [2] [nM] | koff [3] [s⁻¹] | Ki [4] [nM] |
| --- | --- | --- | --- | --- |
| BISP(26–124) (purified from insect cells) (domain or fragment) SAMRYASGFQNNERQSSEQESYSRSAQSSEKSSSGYQMGEMASAGVGMSSGYGGSGYSSGGGYQQGVGYSGCDSDYSSGGIGGIVNTATGLASSVTGMA | 0.000719 | 56.1 | – | – |
| BISP (purified from insect cells) (natural protein) SAMRYASGFQNNERQSSEQESYSRSAQSSEKSSSGYQMGEMASAGVGMSSGYGGSGYSSGGGYQQGVGYSGCDSDYSSGGIGGIVNTATGLASSVTGMAGGLGGGGGLADVGGVVNTVSGLADVGGLTNTVSGLADVGGVTNTVGGLVNGIAGGGAGGGLLGGVLGGGDGGCGGNCGGNCGGNCGGRGGGGGGLLGGILGGGSGGGRGARVSARVC | – | 9.72 | 0.000341 | 98 |
